Square brackets hold non-standard residues; d marks the D form. Ends that are not written are not given here. pY = N[C@@H](Cc1ccc(OP(=O)(O)O)cc1)C(=O)O
Key:
NMDAR = test: mEPSC whole cell recordings in cultured hippocampal neurons, NMDAR component; type: cell-based, rat
Method: (§1) Fetal rat hippocampal neurons were prepared, cultured, and used for electrophysiological recordings 12-17 days after plating. Methods for whole cell recordings are described in Pelkey et al. (Neuron 34:127-138 2002).
(§2) In contrast, in control experiments administering EPQ(pY)EEIPIA (SEQ ID NO:5) increased the NMDAR component of mEPSCs by 172±28% and application of Src40-58 decreased the NMDAR component to 56±4% (FIGS. 5D-F). […] Composite traces are shown in black, the NMDAR component in dark grey, and the AMPAR component in light grey. Scale bars are 50 ms/10 pA. […] NMDA component data were calculated as Q20′/Q2′, and AMPA component data were calculated as A20′/A2′. […] An * indicates a significant difference, Student's t-test, p<0.05. Taking our results together, it is concluded that Src-dependent regulation of the activity of NMDARs depends on expression of ND2 through its anchoring of Src to the NMDAR complex.

AMPA receptor = test: mEPSC whole cell recordings in cultured hippocampal neurons, AMPA receptor component; type: cell-based, rat; details: under the recording conditions used
Method: as §1, §2

Src unique domain = target: T1, Src unique domain (Mus musculus, UniProt P05480); test: blot of ND2-GST fusion proteins probed with biotinylated Src unique domain; type: binding; details: GST fusion protein
T1 construct: amino acids 4-82 (the Src unique domain); GST (N); made in house; host or cells: BL21 bacteria
Method: (§3) Src, Fyn, and ND2 recombinant proteins were prepared. The cDNAs encoding the SH3 and SH2 domains of mouse n-Src and Fyn were PCR subcloned, ligated in frame into pGEX4T-1 (Amersham Pharmacia Biotech, Baie d'Urfé, Québec), and sequenced. These plasmids, as well as plasmids encoding the unique domains of Src and Fyn in pGEX2T'6, were transformed into BL21 bacteria, and GST fusion proteins were purified by glutathione affinity chromatography. To create the ND2.1, ND2.2, and ND2.3 GST fusion proteins, cDNAs encoding amino acids 239-321 (ND2.1-GST; SEQ ID NO:7), amino acids 189-238 (ND2.2-GST; SEQ ID NO:11), and amino acids 1-188 (ND2.3-GST; SEQ ID NO:13) of human ND2 were PCR subcloned and ligated into pGEX4T-1 (the nucleotide sequence encoding ND2 is SEQ ID NO:8 and the amino acid sequence is SEQ ID NO:9; the nucleotide sequences encoding ND2.1; ND2.2 and ND2.3 are SEQ ID NOS:6, 10 and 12, respectively). Using PCR-based single nucleotide mutagenesis, all cDNAs encoding ND2 fusion proteins were corrected for differences between mitochondrial and nuclear codons to prevent premature translation termination and protein truncation. All constructs were then confirmed by sequencing. The plasmids were transformed into bacteria, and GST fusion proteins were purified by glutathione affinity chromatography.
(§4) Detailed protocols for in vitro binding assays, pull down assays, immunoblotting, and co-immunoprecipitation techniques can be found in Pelkey et al. (Neuron 34:127-138 2002).
As yeast two-hybrid screening may reveal false positive protein-protein interactions, the interaction between Src and ND2 was observed using an independent methodological approach. Direct binding in vitro between ND2 and Src was tested using recombinant proteins. A series of GST fusion proteins comprised of portions of ND2 that spanned the overlapping region found with the yeast two-hybrid screen were made (FIG. 1A). […]

ND2.1-GST = target: T2, ND2.1-GST (Homo sapiens, UniProt P03891, A265T); test: in vitro binding of biotinylated Src peptides to ND2.1-GST (blot / dot blot); details: biotinylated peptide, streptavidin-HRP detection
T2 construct: made in house; host or cells: bacteria
Method: as §3
Src40-58 and scrambled Src peptides were biotinylated by incubating with Sulfo-NHS-Biotin (Pierce Chemical Co., Rockford, Ill.) for 30 minutes at room temperature (SEQ ID NO:4, Src protein). […] Bound probe was then detected on film using an ECL kit.
To detect the binding of ND2.1-GST with Src peptides, the ND2.1-GST fusion protein was purified on glutathione SEPHAROSE. […] Bound probe was then detected on film using an ECL kit (Amersham Pharmacia Biotech, Baie d'Urfé, Québec).
Src40-58, Src40-49, Src49-58, scrambled Src40-58, TAT-Src40-49, and scrambled TAT-Src40-49 peptides were biotinylated by incubating with Sulfo-NHS-Biotin (Pierce Chemical Co., Rockford, Ill.) for 30 minutes at room temperature. […] Bound probe was then detected on film using an ECL kit.

[1] = target: T3, association of Src with the NMDAR complexes (Rattus norvegicus, UniProt P11662); test: co-immunoprecipitation of Src with NMDARs from PSD proteins; type: binding
T3 construct: from tissue; host or cells: rat brain post-synaptic density fraction
Method: as §4
(§5) Post-synaptic density proteins (Kennedy et al. Proceedings of the National Academy of Science USA 80:7357-7361 1983) were prepared from rat brain as described in detail (Pelkey et al. Neuron 34:127-138 2002). Cellular fractionation of rat brain tissue into nuclear, heavy mitochondrial, light mitochondrial, microsomal, and cytosolic fractions was performed by differential centrifugation of tissue homogenate in 0.25 M sucrose/10 mM HEPES-NaOH, 1 mM EDTA, pH 7.4 with 2 μg each of aprotinin, pepstatin A, and leupeptin (Sigma, St. Louis, Mo.) at 4° C. Nuclei were pelleted by centrifugation at 1 000 g for 10 minutes, the supernatant was removed and spun at 3 000 g for 10 minutes to obtain a heavy mitochondrial pellet. The supernatant was removed and spun at 16 000 g for 15 minutes to obtain a light mitochondrial pellet. The supernatant was removed and spun at 100 000 g for 1 hour to obtain a microsomal pellet and the cytosolic fraction. All pellets were then resuspended in RIPA buffer (50 mM Tris pH 7.6, 150 mM NaCl, 1 mM EDTA, 1% NP-40, 2.5 mg/ml NaDOC, 1 mM Na3VO4 1 mM PMSF, and 2 μg/ml each of protease inhibitors). The light mitochondrial fraction was used in subsequent experiments. […]

[2] = test system: SH2 or SH3 domains of Src; test: blot of ND2.1-GST probed with biotinylated SH2 and SH3 domains of Src; type: binding, mouse
Method: (§6) Src, Fyn, and ND2 recombinant proteins were prepared. The cDNAs encoding the SH3 and SH2 domains of mouse n-Src and Fyn were PCR subcloned, ligated in frame into pGEX4T-1 (Amersham Pharmacia Biotech, Baie d'Urfé, Québec), and sequenced. These plasmids, as well as plasmids encoding the unique domains of Src and Fyn in pGEX2T'6, were transformed into BL21 bacteria, and GST fusion proteins were purified by glutathione affinity chromatography. To create the ND2.1, ND2.2, and ND2.3 GST fusion proteins, cDNAs encoding amino acids 239-321 (ND2.1-GST; SEQ ID NO:7), amino acids 189-238 (ND2.2-GST; SEQ ID NO:11), and amino acids 1-188 (ND2.3-GST; SEQ ID NO:13) of human ND2 were PCR subcloned and ligated into pGEX4T-1 (the nucleotide sequence encoding ND2 is SEQ ID NO:8 and the amino acid sequence is SEQ ID NO:9; the nucleotide sequences encoding ND2.1; ND2.2 and ND2.3 are SEQ ID NOS:6, 10 and 12, respectively). Using PCR-based single nucleotide mutagenesis, all cDNAs encoding ND2 fusion proteins were corrected for differences between mitochondrial and nuclear codons to prevent premature translation termination and protein truncation. All constructs were then confirmed by sequencing. The plasmids were transformed into bacteria, and GST fusion proteins were purified by glutathione affinity chromatography. […]

Fyn unique domain = target: T4, Fyn unique domain (Mus musculus, UniProt P39688); test: blot of ND2.1-GST probed with biotinylated Fyn unique domain; type: binding
T4 construct: plasmids encoding the unique domains of Src and Fyn in pGEX2T'6; GST (N); made in house; host or cells: BL21 bacteria
Method: as §6

Src [3] = target: T5, Src (Rattus norvegicus, UniProt Q9WUD9); test: pull down of Src from PSD preparations by ND2-GST fusion proteins; type: binding
T5 construct: from tissue; host or cells: rat brain post-synaptic density fraction
Method: as §4, §5

Src [4] = target: Src (Homo sapiens, UniProt P12931); test: catalytic activity of Src in vitro; type: biochemical; details: not illustrated
Source text: As ND2 alone is not catalytically active (J. E. Walker Quarterly Reviews of Biophysics 25(3):253-324 1992; Sazanov et al. Journal of Molecular Biology 302:455-464 2000; Sazanove et al. Biochemistry 39:7229-7235 2000), its functional role in the NMDAR complex was investigated. […] Thus, it is unlikely that ND2 is a target of Src or a regulator of Src kinase activity.

T4 sequence (P39688 1-81 limits assumed): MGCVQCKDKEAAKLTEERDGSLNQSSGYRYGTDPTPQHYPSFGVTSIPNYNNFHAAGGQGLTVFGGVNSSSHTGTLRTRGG
T3 sequence (P11662 whole entry, other chains not shown): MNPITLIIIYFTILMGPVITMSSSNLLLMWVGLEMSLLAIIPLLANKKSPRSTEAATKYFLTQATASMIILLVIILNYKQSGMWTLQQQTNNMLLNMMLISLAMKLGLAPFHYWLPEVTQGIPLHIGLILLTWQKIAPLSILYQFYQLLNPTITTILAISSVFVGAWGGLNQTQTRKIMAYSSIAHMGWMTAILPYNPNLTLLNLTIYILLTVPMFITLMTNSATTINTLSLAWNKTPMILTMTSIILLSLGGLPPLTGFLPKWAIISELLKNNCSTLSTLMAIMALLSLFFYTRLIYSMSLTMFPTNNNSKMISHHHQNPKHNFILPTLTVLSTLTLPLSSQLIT

EPQ(pY)EEIPIA (EPQ[pY]EEIPIA)
NMDAR component of mEPSCs, increased by (NMDAR; control experiments, cultured hippocampal neurons): 172±28% | NMDAR component of the mEPSCs (NMDAR; neurons treated with chloramphenicol for 48 hours): not affected | AMPA receptor component of the mEPSCs (AMPA receptor): neither of these reagents affected

ND2.2-GST: GST fusion protein containing amino acids 189-238 of human ND2 (SEQ ID NO:11) (WMMAVLPYNPNMTILNLTIYIILTTTAFLLLNLNSSTTTLLLSRTWNKLT; also: GST fusion protein)
binding to the unique domain of Src (Src unique domain): did not bind

Src40-49: peptide, 10 amino acid residues, corresponding approximately to amino acid positions 40-49 of the Src unique domain (SEQ ID NO:1) (KPASADGHR; listed as Homo sapiens)
binding to ND2.1-GST (ND2.1-GST): interacts with ND2

Src50-58: Src49-58: peptide comprising amino acid residues 49-58 of SEQ ID NO:4; printed Src50-58 in the summary (PSAAFAPAAA; listed as Homo sapiens)
binding to ND2.1-GST (ND2.1-GST): did not interact

B1: ND2.3-GST: GST fusion protein containing amino acids 1-188 of human ND2 (SEQ ID NO:13) (protein)
chain: MNPLAQPVIYSTIFAGTLITALSSHWFFTWVGLEMNMLAFIPVLTKKMNPRSTEAAIKYFLTQATASMILLMAILFNNMLSGQWTMTNTTNQYSSLMIMMAMAMKLGMAPFHFWVPEVTQGTPLTSGLLLLTWQKLAPISIMYQISPSLNVSLLLTLSILSIMAGSWGGLNQTQLRKILAYSSITHMG
modifications: left off: a dimerising Fc or GST
binding to the unique domain of Src (Src unique domain): did not bind

B2: ND2.1-GST: GST fusion protein containing amino acids 239-321 of human ND2 (SEQ ID NO:7) (protein)
chain: WLTPLIPSTLLSLGGLPPLTGFLPKWTIIEEFTKNNSLIIPTIMATITLLNLYFYLRLIYSTSITLLPMSNNVKMKWQFE
modifications: left off: a dimerising Fc or GST
co-immunoprecipitation of Src with NMDARs [1]: suppressed | binding to the unique domain of Src (Src unique domain): bound | binding to the SH2 or SH3 domains of Src [2]: did not bind | interaction in vitro with the Fyn unique domain (Fyn unique domain): did not interact | pulls Src from PSD preparations (Src [3]): pulls Src | catalytic activity of Src in vitro (Src [4]): did not alter

From patent US8003609B2, “Method for ameliorating pain by modification of NMDA receptors through inhibition of Src” (The Hospital for Sick Children, priority 2004, dated 2011)
